For experiment [1], the target named is solRP105-MD1 complex (mouse) (UniProt O88188). Briefly: SEC-MALS; WTC-030S5 column (Wyatt); 50 mM Tris-Cl pH 8.0, 300 mM NaCl; 0.5 ml/min; purified solRP105-MD1 complex. (In general: In gel filtration, larger molecules generally elute earlier.)
For experiment [2] the target is unchanged. Put plainly: SEC; Superdex 200 PC3.2/30; 50 mM Tris-Cl pH 8.0, 300 mM NaCl; 0.05 ml/min; purified solRP105 and purified solRP105-MD1 complex.
The target of experiment [3] is T1, soluble RP105 (extracellular domain of mouse RP105, residues Thr21-Ala630) (mouse).
T1 sequence (Q62192 whole entry, looked up): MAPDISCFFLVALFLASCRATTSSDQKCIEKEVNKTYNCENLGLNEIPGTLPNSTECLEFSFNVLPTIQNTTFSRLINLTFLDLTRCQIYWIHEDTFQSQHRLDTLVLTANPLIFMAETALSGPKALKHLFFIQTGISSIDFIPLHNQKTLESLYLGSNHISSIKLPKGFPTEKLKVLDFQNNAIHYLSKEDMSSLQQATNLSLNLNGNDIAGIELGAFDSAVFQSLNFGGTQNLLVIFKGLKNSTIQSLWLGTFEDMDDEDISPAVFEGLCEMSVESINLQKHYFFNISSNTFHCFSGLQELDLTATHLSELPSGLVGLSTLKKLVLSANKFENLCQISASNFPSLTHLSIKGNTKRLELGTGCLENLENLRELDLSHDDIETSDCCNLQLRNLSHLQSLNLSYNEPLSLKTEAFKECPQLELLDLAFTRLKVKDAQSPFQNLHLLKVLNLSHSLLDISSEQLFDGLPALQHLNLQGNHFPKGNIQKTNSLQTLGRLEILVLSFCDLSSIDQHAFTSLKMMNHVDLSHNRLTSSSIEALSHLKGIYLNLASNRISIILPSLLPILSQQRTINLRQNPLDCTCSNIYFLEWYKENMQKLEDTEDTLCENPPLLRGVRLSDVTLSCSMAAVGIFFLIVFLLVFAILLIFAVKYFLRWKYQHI
Briefly: SEC-MALS; WTC-030S5 column (Wyatt); 50 mM Tris-Cl pH 8.0, 300 mM NaCl; 0.5 ml/min; purified solRP105-MD1 complex.

As for “solRP105-MD1 complex (from UniProt O88188 20-162)”, the stoichiometry N (RP105-MD1 units per complex) in experiment [1] and in experiment [2] was 2 in each case.

B1: mouse MD1 without its native signal sequence (residues Asp20-Ser162) (natural protein)
chain: DHGSENGWPKHTACNSGGLEVVYQSCDPLQDFGLSIDQCSKQIQSNLNIRFGIILRQDIRKLFLDITLMAKGSSILNYSYPLCEEDQPKFSFCGRRKGEQIYYAGPVNNPGLDVPQGEYQLLLELYNENRATVACANATVTSSAAA
modifications: differential N-glycosylation at Asn96 and Asn156
On to B1, for which the stoichiometry N (MD1 per RP105 (2:2)) in experiment [3] is 1.

The record behind these values is paper PMC3699456.
